Key:
[1] = molecular target: T1, Nop5mut4 (D135A, L143K, V217E, E224A) (Methanocaldococcus jannaschii, UniProt Q58105 1-414, D135A | L143K | V217E | E224A); assay: co-sedimentation
T1 sequence (looked up): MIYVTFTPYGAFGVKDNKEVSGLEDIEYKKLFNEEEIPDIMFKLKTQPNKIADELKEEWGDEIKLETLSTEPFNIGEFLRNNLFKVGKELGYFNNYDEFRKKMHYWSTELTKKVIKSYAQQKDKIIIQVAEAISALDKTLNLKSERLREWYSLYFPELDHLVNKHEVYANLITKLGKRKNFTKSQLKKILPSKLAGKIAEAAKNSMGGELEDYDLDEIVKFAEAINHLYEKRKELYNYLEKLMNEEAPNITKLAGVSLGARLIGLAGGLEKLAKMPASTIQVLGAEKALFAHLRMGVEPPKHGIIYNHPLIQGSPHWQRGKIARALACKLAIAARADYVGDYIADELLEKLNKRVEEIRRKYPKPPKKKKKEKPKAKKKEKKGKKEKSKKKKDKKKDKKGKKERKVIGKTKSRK

[2] = molecular target: T2, Nop5mut2 (L143K, V217E) (Methanocaldococcus jannaschii, UniProt Q58105 1-414, L143K | V217E); assay: co-sedimentation
T2 sequence (looked up): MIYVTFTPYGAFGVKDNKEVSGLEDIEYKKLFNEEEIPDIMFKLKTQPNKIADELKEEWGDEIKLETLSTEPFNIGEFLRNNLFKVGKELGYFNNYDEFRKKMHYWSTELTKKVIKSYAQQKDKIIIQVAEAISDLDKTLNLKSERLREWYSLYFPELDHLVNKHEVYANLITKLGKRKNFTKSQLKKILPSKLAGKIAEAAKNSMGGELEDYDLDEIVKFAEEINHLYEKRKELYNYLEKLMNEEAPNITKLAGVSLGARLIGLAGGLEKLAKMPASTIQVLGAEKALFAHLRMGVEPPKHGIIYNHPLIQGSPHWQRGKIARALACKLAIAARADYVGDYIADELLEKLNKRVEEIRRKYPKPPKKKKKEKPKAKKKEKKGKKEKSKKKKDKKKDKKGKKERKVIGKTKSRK

[3] = molecular target: T3, Methanocaldococcus jannaschii Nop5 (Methanocaldococcus jannaschii, UniProt Q58105 1-414); assay: quantitative amino acid analysis
T3 sequence (looked up): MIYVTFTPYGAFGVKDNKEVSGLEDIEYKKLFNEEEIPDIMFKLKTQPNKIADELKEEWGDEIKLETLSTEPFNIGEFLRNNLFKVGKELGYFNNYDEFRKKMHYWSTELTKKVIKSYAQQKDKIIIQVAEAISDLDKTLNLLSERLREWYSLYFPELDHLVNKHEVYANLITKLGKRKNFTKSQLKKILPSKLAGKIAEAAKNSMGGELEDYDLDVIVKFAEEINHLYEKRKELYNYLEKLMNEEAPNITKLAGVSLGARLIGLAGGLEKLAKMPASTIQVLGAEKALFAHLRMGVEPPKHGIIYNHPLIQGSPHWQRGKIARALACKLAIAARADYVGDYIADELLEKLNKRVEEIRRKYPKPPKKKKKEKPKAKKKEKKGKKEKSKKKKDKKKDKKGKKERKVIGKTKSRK

- binding result [1]: binds
- binding result [2]: binds
- stoichiometry N [3]: 1
B1: Methanocaldococcus jannaschii fibrillarin (enzyme, UniProt Q58108 1-230, looked up)
chain: MEDIKIKEIFENIYEVDLGDGLKRIATKSIVKGKKVYDEKIIKIGDEEYRIWNPNKSKLAAAIIKGLKVMPIKRDSKILYLGASAGTTPSHVADIADKGIVYAIEYAPRIMRELLDACAERENIIPILGDANKPQEYANIVEKVDVIYEDVAQPNQAEILIKNAKWFLKKGGYGMIAIKARSIDVTKDPKEIFKEQKEILEAGGFKIVDEVDIEPFEKDHVMFVGIWEGK
